From a protein production outcome set (Wang et al. 2014)

Experiment: label from the status in PepcDB records

Sequence	protein production
MNNEAVFSARLSSTQHVGLCRLCNSPLVHTFVDLGMSPPCESFVAADAANDVEPFYPLHAFVCDECFLVQLQEYVAPENIFTEYAYFSSFSDSWVAHAKRYCDMVIERFALGQSSFVVELASNDGYLLQHFLTSNIPMLGIEPAVNVAKVAIGKGIPTLTEFFNEALATDMAARGQKADLIIGNNVLAQVPDINDFVAGMKTLLKPEGVITLEFPHIEKLIAENQFDTIYHEHFSYFSLLTIEKMARRHGLKVFDVEEIPTHGGSLRVFFSHEDIRFPREARVDSLLARELNAGLDKIETYTAFAEAVRQTKRNLLSFLIRLKEMRKSICAYGAPGKGNTLLNYCGIGTDFIDFAVDRNPYKHGRLTPGMHIPIRPVSEIPHMKPDYVLILPWNLKNEIVAQMKDIRNWGGKFIVPIPDISIIDPKELVQ	failed
MVSTLGSDTFTSISAHDLHGKLGNIHLIDVRENDDFKEGHIPTSRNIPMDILLKEPEKYINKTDEYYIVCQAGVKSEKTCKELWSKGYKVINIKDGTDSYKQPLEHHHHHH	failed
MRLMDILEILYYKKGKEFGILEKKMKEIFNETGVSLEPVNSELIGRIFLKISVLEEGEEVPSFAIKALTPKENAVDLPLGDWTDLKNVFVEEIDYLDSYGDMKILSEKNWYKIYVPYSSVKKKNRNELVEEFMKYFFESKGWNPGEYTFSVQEIDNLF	not failed
MTITILAFIIALFFAMNIGASGAAASMGIAYGAGAVRKRQAALWISGIGVFLGAMIGGGEVVKTIGSGIIPASILNVHIVVIILGSSAISLFIANIAGIPLSTSEVTVGSIVGVGVAFQAVFTDKLLVIVMYWLIIPIAAFFLAFLIGQLLKKTEAKLRWLKQQKWARLLTALVILTGFLEAFSAGMNNVANSVGPLVGAGLLSVGSGTFLGGLFVAIGAICLGSRVIETNGKKITEFSLLQGSCVSGLGASLVIGASLFGIPVPQTQITTCSIIGIGLSEKGRAIFRKSVILKLMKVWVVSPVFSLVISYSLVKIFLDFDLYSVAVVLCVFLATLGSISLMKHARQKQSDVRRNRDHVKSIVGGRGRKREPAAWRDF	failed
MPSQSFNAFCPDWATALLNGFSQIFLQRHPLCGLLCLLAILVSAPALLGAALLGALAGLLTAQRRWYAKADRQAGLFSYNGVLLGLLLGLYLPWSVLLPPLIIAAGGLSAIITQQWLKRARNPASLPAYTAPFVGLGWLLLSLIEPLPAATQGVPGLSLANLLGGLFQGLGQIMFLGQPLAGLLILLGLLLASRRAAAWALFGSACGLLFALLLQEHAQALQGLGGYNCALVALALGQQARHPWRPLLGMLLALLISPGLVALGLAPLTAPFVLACWLVHTVDRVLGRNVRGDAPCAPPANPPRLR	failed
MPQDPTERRVVVTGPPRRARRAFDYYRPRTEIDEQTTLGHTYVRSLMRSQLRAGLAVFAVLVLLVGPLPLVFAAIPDARRLTWAVLGFCLYAPLVLLARWYVRRAERNERDFVRLVEDR	failed
MMRRFKFVVQNITAKIVYTRICMGTIQKIRTDVNVLHAAIHRIEWLFETFSSVCLSFSGGKDSTVLLHLTADVARRKKRRFSVLFIDWEAQYQCTIAHILKMREMYRDVTETFYWVALPLTTVNGVSQFQPEWICWEPGVEWVRQPPDDAITDMSYFPFYRYAMTFEEFVPAFSSWFAGNRCGVAILTGVRADESLNRFMGLVSQRKLRYADDKPWTTASPEGFYYTLYPLYDWKARDIWIYNARTRAIYNPLYDLMYRAGVPLRNMRVCEPFGPEQRKGLWLYHVLEPETWARMCERVSGAASGALYANESGAYFALRKRITKPPHHTWRSYAMFLLDVMPERTAEHYRNKIAVYLRWYQTRGFPDDIPDEQENDLGSRDIPSWRRICKTLIKNDFWCRTLSFSPNKPRHYERYLQRMKERRKEWGIL	failed
MNINVAELLNGNYILLLFVVLALGLCLGKLRLGSIQLGNSIGVLVVSLLLGQQHFSINTDALNLGFMLFIFCVGVEAGPNFFSIFFRDGKNYLMLALVMVGSALVIALGLGKLFGWDIGLTAGMLAGSMTSTPVLVGAGDTLRHSGMESRQLSLALDNLSLGYALTYLIGLVSLIVGARYLPKLQHQDLQTSAQQIARERGLDTDANRKVYLPVIRAYRVGPELVAWTDGKNLRELGIYRQTGCYIERIRRNGILANPDGDAVLQMGDEIALVGYPDAHARLDPSFRNGKEVFDRDLLDMRIVTEEVVVKNHNAVGKRLAQLKLTDHGCFLNRVIRSQIEMPIDDNVVLNKGDVLQVSGDARRVKTIADRIGFISIHSQVTDLLAFCAFFVIGLMIGMITFQFSTFSFGMGNAAGLLFAGIMLGFMRANHPTFGYIPQGALSMVKEFGLMVFMAGVGLSAGSGINNGLGAIGGQMLIAGLIVSLVPVVICFLFGAYVLRMNRALLFGAMMGARTCAPAMEIISDTARSNIPALGYAGTYAIANVLLTLAGTIIVMVWPGLG	failed
MLADPAQPEHVFIVEDSRGATELKLYKSHYTIGKADSCDIRLHSIYASRQHATLVRFLTENGEVRYRLIDGDPETSRRSANGTYVNNRSITECDLKHYDQILFGADVKATYFYLSPQFRSLEHHHHHH	failed
MPRSTWFKALLLLVALWAPLSQAETGWQPIQETIRKSDKDNRQYQAIRLDNGMVVLLVSDPQAVKSLSALVVPVGSLEDPEAYQGLAHYLEHMSLMGSKKYPQADSLAEYLKMHGGSHNASXAPYRTAFYLEVENDALPGAVDRLADAIAEPLLDKKYAERERNAVNAELTMARTRDGMRMAQVSAETINPAHPGSKFSGGNLETLSDKPGNPVQQALKDFHEKYYSANLMKAVIYSNKPLPELAKMAADTFGRVPNKESKKPEITVPVVTDAQKGIIIHYVPALPRKVLRVEFRIDNNSAKFRSKTDELITYLIGNRSPGTLSDWLQKQGLVEGISANSDPIVNGNSGVLAISASLTDKGLANRDQVVAAIFSYLNLLREKGIDKQYFDELANVLDIDFRYPSITRDMDYVEWLADTMIRVPVEHTLDAVNIADRYDAKAVKERLAMMTPQNARIWYISPKEPHNKTAYFVDAPYQVDKISEQTFADWQQKAANIALSLPELNPYIPDDFSLIKSEKKYDHPELIVDESNLRVVYAPSRYFSSEPKADVSLILRNPKAMDSARNQVMFALNDYLAGLALDQLSNQASVGGISFSTNANNGLMVNANGYTQRLPQLFQALLEGYFSYTATEDQLEQAKSWYNQMMDSAEKGKAFEQAIMPAQMLSQVPYFSRDERRKILPSITLKEVLAYRDALKSGARPEFMVIGNMTEAQATTLARDVQKQLGADGSEWCRNKDVVVDKKQSVIFEKAGNSTDSALAAVFVPTGYDEYTSSAYSSLLGQIVQPWFYNQLRTEEQLGYAVFAFPMSVGRQWGMGFLLQSNDKQPSFLWERYKAFFPTAEAKLRAMKPDEFAQIQQAVITQMLQAPQTLGEEALKLSKDFDRGNMRFDSRDKIVAQIKLLTPQKLADFFHQAVVEPQGMAILSQISGSQNGKAEYVHPEGWKVWENVSALQQTMPLMSEKNE	failed
AQGVGVEAILLLRRECQASHEDALHLGLAEHAPVIELQTLRKLDGQAVSLIFHRYSAVYHELLADYQGGSVRQYLAECGLPLSRAQSLIGARLPSREEAGLLLMPRHMPALTVLTVSCDGAGQPVELSRSVSRSDRFQ	failed
MVMFRGHLLCFGLGYSALRLARGLLRDGWRVSGTCRSEEKRQALSAQGITAFVFDETTPLPAEAWTGVTHVLVSIPPGPDGDPVLALHRADLLALRPEWLGYFSTTGVYGDTGGAWVDEGKPVRPTQERSKRRVAAEEDWLDLWRDEDLPVHLLRLAGIYGPGRSVFDQLRAGTAKRIIRPGHAFSRIHVDDIGLITRASMADPDPGAIYNLVDDEPAEPSEVMDHACALLGIDPPPAQSFDEVAPGLSPMALSFWADNRKVSNERLWDDLRLRLLYPTFRQGLEAILAEETGRVAEGPPVYKEASDC	failed
MHNHNNRLVITPGEPAGVGPDLAITLAQQDWPVELVVCADPALLLARASQLNLPLQLREYQADQPAIAQQAGSLTILPVKTAVNVVPGKLDVGNSHYVVETLAKACDGAISGEFAALVTGPVQKSIINDAGIPFIGHTEFFADRSHCQRVVMMLATEELRVALATTHLPLLAVPGAITQASLHEVITILDNDLKTKFGITQPQIYVCGLNPHAGEGGHMGHEEIDTIIPALNTLRQQGINLIGPLPADTLFQPKYLQHADAVLAMYHDQGLPVLKYQGFGRAVNITLGLPFIRTSVDHGTALELAATGTADVGSFITALNLAIKMINNSNE	not failed
MKTIQPCSVEDIQSWLIDQFAQQLDVDPDDIDMEESFDNYDLNSSKALILLGRLEKWLGKELNPVLIFNYPTIAQLAKRLGELYL	not failed
MMGLKAHAMVLEKFNQPLVYKEFEISDIPRGSILVEILSAGVCGSDVHMFRGEDPRVPLPIILGHEGAGRVVEVNGEKRDLNGELLKPGDLIVWNRGITCGECYWCKVSKEPYLCPNRKVYGINRGCSEYPHLRGCYSSHIVLDPETDVLKVSEKDDLDVLAMAMCSGATAYHAFDEYPESFAGKTVVIQGAGPLGLFGVVIARSLGAENVIVIAGSPNRLKLAEEIGADLTLNRRETSVEERRKAIMDITHGRGADFILEATGDSRALLEGSELLRRGGFYSVAGVAVPQDPVPFKVYEWLVLKNATFKGIWVSDTSHFVKTVSITSRNYQLLSKLITHRLPLKEANKALELMESREALKVILYPEG	not failed
MTEQERLELEAAAFRRLVAHLDSRKDVQNIDLMNLSGFCRNCLSKWYKAAADEKHIDITLDDAREVVYGMPYSEWKANYQKEASAEQQAAFVKESKHD	not failed
MDKHNEEHIYVAIDLKSFYASVECRERGKDALTTNLVVADPTRTEKTICLAVSPALKAYGIPGRARLFEVVQRVKEVNKLRLSKLMASGHAAGTVERRKKYVTEIDIAENDITESTMAGFDYASYNANLLDAHPEYELTYIVAPPRMALYMDYSTRIYNIYLKYIAPEDISVYSIDEVFMDVTHYLRTYHMTARELASKMIDDVLKDTGITATCGIGTNLYLCKIAMDIMAKHAMPDERGVRIAELNENSYRRKLWDHRPITDFWRVGAGYAKKLEAAGMYTMGDVARCSTGGSNDFYNEEKLYKMFGINAELLIDHAWGYEPVTIADIKAYRPQTNSISSGQVLQEPYDYEKTKLIVREMTDLLVLDLVDKRLVTDQIVLTIGYDIANLSNKADSCLGNNYDHAVNNKGRDSIGGKKGTHRDYTGEITIDRYGRKVPKHAHGTANLGRYTSSTRIIMDAVMELYDRIIDPSLLTRRITVVANRVCDESKVQESEQFEQLDLFTDYQARAKEKKKEDEALSKERKLQEAMISVKKKYGKNAMLKGMNLEEGATTISRNNQIGGHKA	failed
LVVSEARFRAAIDAVQGVLWTNNASGKMVGEQPGWSALTGQIREEYEGVGWTKVVHPDDVEPTLSAWLAAVAEKRTFEFEHRVRRHDGVWRDCLIRAVPLIGDNGEIREWVGVHTDISEQKAAAEK	failed
MAVIADPETAQGFRLAGLEGYGASSAEEAQSLLETLVERGGYALVAVDEALLSDPERAVERLMRGRDLPVLLPIAGLKEAFQGHDVEGYMRELVRKTIGFDIKLLEHHHHHH	failed
MSKHVNWSGVFPAVTTQFNADFSVNLEETHTVISNLVRDGVSGLVVCGSVGENTSLTIEEKMAVTEVAKDASGGRVPVICGIAEFTSAGAAKVAKAVERVGVDGIMVMPALVYSSKPHETAEHFRSVASGTDLPVMVYNNPPIYRNDVTPDILVSLADCENIVCFKDSSGDTRRFIDVRNQVGERFILFAGLDDVVLESVAVGAQGWISGMSNVFPKEGETIFRLARAGRFAEAMPIYEWLMPILHLDARPDLVQCIKLCEQLAGRGSALTRPPRLALRGADREHVERIMAKALA	failed
